Test [1] has as its target GFP–STIM2K dimer (oxidized, disulphide-linked through Cys725) (human) (UniProt Q9P246). The test is described as follows: pull-down; competition: GFP–STIM2K dimer bound to Ca^2+/CaM beads, eluted with 75 μM purified CaM or CaM mutant in 1 mM CaCl2; percent of bound GFP–STIM2K eluted.
In test [2] the target is GFP–Zipper–STIM1K (GFP, tetramerization domain of the Gcn4 leucine zipper variant pLI, STIM1 K-rich domain) (yeast | human) (UniProt Q13586). The test is described as follows: SEC; Superdex 200 10/300 GL in HK buffer (25 mM HEPES/KOH pH 7.5, 150 mM KCl, 1 mM DTT), 0.5 ml/min; elution compared with marker proteins. Background: Size exclusion chromatography separates by hydrodynamic size, large species first.

Test [3] deals with GFP–STIM2K dimer (oxidized, disulphide-linked through Cys725) (human) (UniProt Q9P246).
Chain of GFP–STIM2K dimer (oxidized, disulphide-linked through Cys725) (human) (Q9P246 720-746): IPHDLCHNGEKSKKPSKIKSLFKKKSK
Test [4] shares this target. The source holds these as a separate data set.
Test [5] has the same target. This is another data set of the same source.

For “CaM1–4m (human CaM1–4 mutant, all four EF-hand domains mutated) (from UniProt P0DP23 1-149) (natural protein)”, in test [1], the percent of GFP–STIM2K eluted from the Ca^2+/CaM beads was determined as 7%.

Turning to “GFP–Zipper–STIM1K (GFP, tetramerization domain of the Gcn4 leucine zipper variant pLI, STIM1 K-rich domain) (from UniProt Q13586-1 662-685)”, the stoichiometry N in test [2] was 4.

Substance “His(6)-tagged human CaM (calmodulin) (from UniProt P0DP23 1-149) (natural protein)” yielded a percent of GFP–STIM2K eluted from the Ca^2+/CaM beads in test [1] of 45%. This substance also came in with a reduction of binding of 2 μM GFP–STIM2K dimer to PM-like liposomes with 2 mol% PI(4,5)P2 after pre-incubation with 5 μM CaM in 100 μM CaCl2, against 100 μM CaCl2 alone in test [3] of 61%. In addition, the reduction of binding of 2 μM GFP–STIM2K dimer to PM-like liposomes with 2 mol% PI(4,5)P2 after pre-incubation with 5 μM CaM in 50, 100 or 200 μM CaCl2 (2.1-, 2.6- and 3.4-fold against CaCl2 alone) in test [4] worked out at 71%. In addition, in test [5], the reduction of binding of 2 μM GFP–STIM2K dimer to PC liposomes with 5 mol% PI(4,5)P2 after pre-incubation with 5 μM CaM in 100 μM CaCl2 (5-fold against no CaCl2, 3.8-fold against 100 μM CaCl2) was 74%.

A word on the stoichiometry N: it is the number of molecules, sites or subunits per partner or assembly.

For the origin of these results see paper PMC3814058.
